Reference: the supplement of paper PMC5998384

Columns and labels:
HeLa Kyoto [1] = assay: thermal stability score vs G1/S (z-score of summed log2 fold changes over temperatures); higher = more thermally stable than in G1/S
HeLa Kyoto [2] = assay: melting temperature (median over replicates), in situ; higher = more thermally stable
HeLa Kyoto [3] = assay: solubility change mitosis vs G1/S (difference of NP-40 vs SDS log2 ratios) (log2 ratio difference); higher = more soluble in mitosis
HeLa Kyoto [4] = assay: solubility in G1/S (NP-40 vs SDS abundance) (log2 ratio); higher = more soluble; settings: cell cycle stage: G1/S
[5] = cell cycle stage: early G1 (4.5 h after nocodazole release)
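Throughout, for melting temperature (median over replicates), in situ: HeLa Kyoto cells synchronized by double thymidine or nocodazole block, proteins quantified by TMT10plex mass spectrometry, three independent biological replicates.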
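Throughout, for solubility change mitosis vs G1/S (difference of NP-40 vs SDS log2 ratios): synchronized HeLa Kyoto cells (double thymidine block for G1/S, nocodazole release for mitosis), protein amounts in NP-40 versus SDS lysates quantified by mass spectrometry, three biological replicates.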
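Throughout, for solubility in G1/S (NP-40 vs SDS abundance): HeLa Kyoto cells arrested at G1/S by double thymidine block, proteins quantified by TMT10plex mass spectrometry in mild NP-40 versus SDS extracts, three biological replicates.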
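Throughout, for thermal stability score vs G1/S (z-score of summed log2 fold changes over temperatures): synchronized HeLa Kyoto cells, proteins quantified by TMT10plex mass spectrometry, three biological replicates, mitosis taken 0.5 h after nocodazole release, G1/S directly after double thymidine block.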

Sequence of ANTXR1 (chain, as listed by the source): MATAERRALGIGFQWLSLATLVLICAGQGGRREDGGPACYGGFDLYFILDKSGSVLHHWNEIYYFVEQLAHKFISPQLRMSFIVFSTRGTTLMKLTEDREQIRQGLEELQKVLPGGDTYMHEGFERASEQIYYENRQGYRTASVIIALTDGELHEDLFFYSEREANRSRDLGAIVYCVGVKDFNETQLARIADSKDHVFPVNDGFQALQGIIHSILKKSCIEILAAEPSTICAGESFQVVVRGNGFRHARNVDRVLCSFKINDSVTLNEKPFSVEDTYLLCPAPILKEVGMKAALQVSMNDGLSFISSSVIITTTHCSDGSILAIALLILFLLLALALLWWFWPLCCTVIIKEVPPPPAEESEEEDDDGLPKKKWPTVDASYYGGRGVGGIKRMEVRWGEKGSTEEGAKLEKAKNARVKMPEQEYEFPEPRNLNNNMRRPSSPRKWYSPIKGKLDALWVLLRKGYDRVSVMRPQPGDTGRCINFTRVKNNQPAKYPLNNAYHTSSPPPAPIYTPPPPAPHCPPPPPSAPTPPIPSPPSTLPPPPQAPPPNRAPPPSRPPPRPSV
Sequence of GALNT2 (chain, as listed by the source): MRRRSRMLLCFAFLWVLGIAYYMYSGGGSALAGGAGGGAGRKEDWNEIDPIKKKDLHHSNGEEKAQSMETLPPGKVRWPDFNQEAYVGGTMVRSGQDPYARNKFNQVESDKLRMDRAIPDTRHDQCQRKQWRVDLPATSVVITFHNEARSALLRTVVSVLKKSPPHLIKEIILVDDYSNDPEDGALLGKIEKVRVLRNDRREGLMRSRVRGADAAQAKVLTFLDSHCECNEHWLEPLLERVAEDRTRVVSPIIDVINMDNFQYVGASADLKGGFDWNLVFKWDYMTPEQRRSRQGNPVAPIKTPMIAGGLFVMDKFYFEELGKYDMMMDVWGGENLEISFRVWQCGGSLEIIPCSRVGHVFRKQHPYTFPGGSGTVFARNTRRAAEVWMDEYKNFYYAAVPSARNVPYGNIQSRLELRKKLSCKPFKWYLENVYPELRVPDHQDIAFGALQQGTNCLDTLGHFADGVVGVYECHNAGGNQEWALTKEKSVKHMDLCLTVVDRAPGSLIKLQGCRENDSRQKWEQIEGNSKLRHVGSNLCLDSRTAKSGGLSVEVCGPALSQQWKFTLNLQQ
Sequence of CDK12 (chain, as listed by the source): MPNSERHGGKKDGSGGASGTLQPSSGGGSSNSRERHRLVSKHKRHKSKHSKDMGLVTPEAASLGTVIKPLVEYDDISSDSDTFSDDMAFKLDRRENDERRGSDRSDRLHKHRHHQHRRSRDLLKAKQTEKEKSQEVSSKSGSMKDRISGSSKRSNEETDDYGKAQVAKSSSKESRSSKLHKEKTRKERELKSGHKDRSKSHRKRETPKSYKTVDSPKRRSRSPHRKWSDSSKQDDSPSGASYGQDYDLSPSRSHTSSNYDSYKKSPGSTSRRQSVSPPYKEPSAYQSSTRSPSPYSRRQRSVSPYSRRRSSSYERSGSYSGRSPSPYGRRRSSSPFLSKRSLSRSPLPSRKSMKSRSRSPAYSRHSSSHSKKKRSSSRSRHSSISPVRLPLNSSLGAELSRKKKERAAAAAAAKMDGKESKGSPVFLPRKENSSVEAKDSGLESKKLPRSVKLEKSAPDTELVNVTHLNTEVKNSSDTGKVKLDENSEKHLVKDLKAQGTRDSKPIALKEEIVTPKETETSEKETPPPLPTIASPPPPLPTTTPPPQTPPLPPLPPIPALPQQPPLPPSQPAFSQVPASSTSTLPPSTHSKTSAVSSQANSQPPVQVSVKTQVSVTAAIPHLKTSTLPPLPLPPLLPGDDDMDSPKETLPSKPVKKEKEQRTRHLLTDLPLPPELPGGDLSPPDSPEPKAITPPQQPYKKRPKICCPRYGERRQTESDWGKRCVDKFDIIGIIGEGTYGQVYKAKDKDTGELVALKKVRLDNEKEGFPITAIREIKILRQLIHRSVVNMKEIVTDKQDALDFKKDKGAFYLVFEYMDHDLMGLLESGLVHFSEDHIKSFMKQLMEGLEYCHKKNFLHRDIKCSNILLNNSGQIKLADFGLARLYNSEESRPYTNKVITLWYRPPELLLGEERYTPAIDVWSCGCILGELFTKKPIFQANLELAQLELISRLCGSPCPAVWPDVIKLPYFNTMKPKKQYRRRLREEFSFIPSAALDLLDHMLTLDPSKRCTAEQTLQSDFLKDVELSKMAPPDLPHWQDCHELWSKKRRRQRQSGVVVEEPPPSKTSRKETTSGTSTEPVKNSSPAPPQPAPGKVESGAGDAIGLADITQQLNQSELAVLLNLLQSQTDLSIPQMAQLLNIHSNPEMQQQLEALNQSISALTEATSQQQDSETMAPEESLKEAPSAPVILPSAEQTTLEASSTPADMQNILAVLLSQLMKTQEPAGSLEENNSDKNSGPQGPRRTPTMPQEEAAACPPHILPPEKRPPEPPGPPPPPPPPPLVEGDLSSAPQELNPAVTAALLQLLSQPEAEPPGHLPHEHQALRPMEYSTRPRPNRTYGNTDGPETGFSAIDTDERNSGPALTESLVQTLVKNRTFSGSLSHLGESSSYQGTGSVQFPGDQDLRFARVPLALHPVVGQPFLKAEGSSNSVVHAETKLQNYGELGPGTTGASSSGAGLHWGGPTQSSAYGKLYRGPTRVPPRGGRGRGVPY
Sequence of LMO7 (chain, as listed by the source): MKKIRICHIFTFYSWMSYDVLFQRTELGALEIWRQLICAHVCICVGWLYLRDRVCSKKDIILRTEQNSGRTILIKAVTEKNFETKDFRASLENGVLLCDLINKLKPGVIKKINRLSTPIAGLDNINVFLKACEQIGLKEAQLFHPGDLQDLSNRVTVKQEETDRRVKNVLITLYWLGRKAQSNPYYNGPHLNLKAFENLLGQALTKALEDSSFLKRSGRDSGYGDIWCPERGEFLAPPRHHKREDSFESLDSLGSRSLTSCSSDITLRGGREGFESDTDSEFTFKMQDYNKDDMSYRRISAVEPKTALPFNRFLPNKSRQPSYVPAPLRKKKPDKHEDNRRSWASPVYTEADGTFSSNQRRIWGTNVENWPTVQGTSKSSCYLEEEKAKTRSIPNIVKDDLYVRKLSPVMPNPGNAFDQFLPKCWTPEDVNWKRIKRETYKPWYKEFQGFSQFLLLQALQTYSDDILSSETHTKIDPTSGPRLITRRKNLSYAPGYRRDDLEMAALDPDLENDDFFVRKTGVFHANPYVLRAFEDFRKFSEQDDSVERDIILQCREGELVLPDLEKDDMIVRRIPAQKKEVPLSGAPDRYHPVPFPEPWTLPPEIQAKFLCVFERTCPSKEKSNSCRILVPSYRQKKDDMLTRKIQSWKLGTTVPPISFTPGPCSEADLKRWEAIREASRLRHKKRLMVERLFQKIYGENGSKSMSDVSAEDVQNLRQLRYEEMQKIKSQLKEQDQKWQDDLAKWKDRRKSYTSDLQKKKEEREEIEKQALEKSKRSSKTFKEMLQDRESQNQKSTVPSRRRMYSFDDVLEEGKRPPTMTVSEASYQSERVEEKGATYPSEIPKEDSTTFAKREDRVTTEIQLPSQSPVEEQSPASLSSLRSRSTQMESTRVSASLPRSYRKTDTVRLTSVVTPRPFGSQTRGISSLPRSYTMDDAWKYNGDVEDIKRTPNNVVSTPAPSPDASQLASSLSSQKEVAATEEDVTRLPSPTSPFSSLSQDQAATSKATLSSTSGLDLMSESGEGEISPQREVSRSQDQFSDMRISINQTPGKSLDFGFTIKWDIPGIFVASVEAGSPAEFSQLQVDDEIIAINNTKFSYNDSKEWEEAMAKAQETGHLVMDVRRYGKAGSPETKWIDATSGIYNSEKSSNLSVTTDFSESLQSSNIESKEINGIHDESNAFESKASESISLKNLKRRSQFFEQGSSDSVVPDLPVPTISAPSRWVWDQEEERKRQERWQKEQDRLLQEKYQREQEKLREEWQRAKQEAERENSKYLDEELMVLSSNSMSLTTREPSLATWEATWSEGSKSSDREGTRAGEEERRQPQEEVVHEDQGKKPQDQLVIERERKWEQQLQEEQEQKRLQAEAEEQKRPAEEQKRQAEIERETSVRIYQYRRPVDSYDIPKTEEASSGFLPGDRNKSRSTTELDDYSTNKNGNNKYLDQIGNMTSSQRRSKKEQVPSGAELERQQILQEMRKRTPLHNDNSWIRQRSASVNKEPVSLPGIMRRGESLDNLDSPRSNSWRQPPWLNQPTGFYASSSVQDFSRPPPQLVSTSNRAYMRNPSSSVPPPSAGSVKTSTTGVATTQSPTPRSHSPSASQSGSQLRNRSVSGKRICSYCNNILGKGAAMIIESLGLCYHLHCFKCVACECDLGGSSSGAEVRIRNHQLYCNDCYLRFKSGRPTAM
Sequence of GFM1 (chain, as listed by the source): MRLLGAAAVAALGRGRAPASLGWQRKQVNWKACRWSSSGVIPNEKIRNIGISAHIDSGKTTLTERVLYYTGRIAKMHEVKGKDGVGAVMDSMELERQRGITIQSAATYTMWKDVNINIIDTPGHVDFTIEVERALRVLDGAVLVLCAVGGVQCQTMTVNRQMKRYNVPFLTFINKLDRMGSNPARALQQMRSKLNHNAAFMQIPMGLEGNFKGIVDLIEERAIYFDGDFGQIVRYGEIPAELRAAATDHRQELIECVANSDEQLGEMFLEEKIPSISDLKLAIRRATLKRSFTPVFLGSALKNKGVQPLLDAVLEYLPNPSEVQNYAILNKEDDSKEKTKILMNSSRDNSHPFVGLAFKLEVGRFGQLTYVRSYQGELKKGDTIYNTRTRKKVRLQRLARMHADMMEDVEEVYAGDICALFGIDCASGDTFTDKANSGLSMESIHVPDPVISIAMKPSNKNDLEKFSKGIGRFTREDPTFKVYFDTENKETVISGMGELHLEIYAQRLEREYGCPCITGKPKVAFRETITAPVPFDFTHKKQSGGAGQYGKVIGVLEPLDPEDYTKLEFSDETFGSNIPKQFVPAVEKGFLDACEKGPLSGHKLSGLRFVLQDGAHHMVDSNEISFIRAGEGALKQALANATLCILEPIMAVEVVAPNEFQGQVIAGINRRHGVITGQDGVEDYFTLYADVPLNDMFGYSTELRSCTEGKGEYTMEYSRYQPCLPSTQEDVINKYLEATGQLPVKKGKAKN

Substance	thermal stability score (HeLa Kyoto [1]; [5])	thermal stability score (HeLa Kyoto [1]; cell cycle stage: mitosis)	melting temperature (HeLa Kyoto [2]; cell cycle stage: G1/S) [°C]	melting temperature (HeLa Kyoto [2]; cell cycle stage: mitosis) [°C]	solubility change mitosis (log2) (HeLa Kyoto [3])	solubility in G1/S (log2) (HeLa Kyoto [4])
ABCD1	0.954	0.963	49.9	49.7	-0.0995	-0.353
ABCF1	-2.34	-2.94	52.7	52.3	0.0453	-0.133
ADCK3	0.477	-0.51	51.1	50	-0.0659	0.231
AHNAK2	0.749	3.16	53	53.5	-0.0597	0.073
AKAP8	1.87	2.22	49	49.8	0.113	-0.14
ANKRD17	-0.291	0.712	49.8	49.9	0.0244	-0.13
ANTXR1	-1.21	-3.82	55	55	0.0236	0.0506
APOB	-3.15	-0.312	57.6	55.5	0.0239	-0.404
APTX	0.58	1.59	48.5	50.7	0.0501	-0.219
ARFGEF1	0.51	0.0301	50.8	50.1	-0.109	-0.319
ARHGAP4	0.224	0.251	52.5	50.3	-0.000167	0.0702
ARHGAP21	0.0615	0.748	47.6	50.2	0.156	-0.453
ARID1B	0.573	1.11	48.8	50.2	0.0332	-0.143
ASCC1	1.88	1.1	50.3	50.7	0.0348	-0.115
ATM	0.333	0.0333	51.7	51.3	-0.141	-0.339
ATRX	-0.452	0.516	49.2	51.4	0.492	-1.33
CBX1	2.04	1.13	51.2	52.8	0.55	-0.629
CBX3	0.789	1.67	49.9	50.9	0.672	-0.141
CCBL2	-0.947	-1.75	57.2	57.5	-0.21	0.16
CDC42BPB	0.874	0.582	51	50.6	-0.105	-0.234
CDK12	-0.391	0.677	50.9	52.5	0.238	-0.473
CHAC2	0.759	0.354	53	51.9	-0.0779	0.541
CHD3	0.67	1.73	46.5	49.1	0.14	-0.643
CHID1	0.711	2.28	53.4	54	-0.0199	-0.16
CHMP5	-3.8	-3.3	55.2	52.2	0.751	0.437
CKB	1.63	2	51	51.3	-0.115	0.651
CLIC4	-0.344	0.497	52.1	52.5	-0.146	0.409

Substance	thermal stability score (HeLa Kyoto [1]; [5])	thermal stability score (HeLa Kyoto [1]; cell cycle stage: mitosis)	melting temperature (HeLa Kyoto [2]; cell cycle stage: G1/S) [°C]	melting temperature (HeLa Kyoto [2]; cell cycle stage: mitosis) [°C]	solubility change mitosis (log2) (HeLa Kyoto [3])	solubility in G1/S (log2) (HeLa Kyoto [4])
COL12A1	4.88	5.9	53.8	54.9	-0.124	-0.1
CPS1	-0.953	-3.38	53.1	53.2	-0.13	0.0669
CTDSPL2	2.66	4.58	48.4	48.7	0.46	-0.599
CTSD	1.02	-1.76	56.2	57	-0.113	0.272
CUL7	0.604	0.125	–	49.1	-0.279	0.0417
CXORF56	-1.87	-1.28	50.6	51.3	0.1	-0.0564
DNAJA1	-1.37	-1.92	51.8	52.1	0.000386	-0.016
DNAJB4	1.4	0.454	49.3	49.5	0.0771	0.0979
DNAJC21	2.06	1.36	50.7	49.9	0.168	-0.451
DNMBP	-0.0907	0.88	48.8	49	-0.133	0.00933
DOCK1	0.388	0.518	50.7	50	-0.0711	-0.195
DST	0.147	1.16	49.1	49.2	0.045	-0.363
EIF2AK4	0.686	0.568	50.8	50.3	-0.0694	-0.218
EP300	-0.227	1.93	50.8	51.6	-0.0909	-0.0947
EZH2	2.26	4	49	49.9	0.156	-0.621
FAM91A1	-0.197	-1.55	51.9	51.3	-0.101	-0.0537
FLAD1	-0.00796	-0.288	51.8	51.6	-0.111	0.272
FLNB	-0.118	0.998	51.8	51.3	-0.0508	-0.0724
FXR2	-1.1	-0.108	52.6	51.7	0.38	-1.13
GALK1	3.18	1.65	52.6	52.7	-0.117	0.313
GALNT2	9.37	17.4	51.6	52	-0.0991	-0.0412
GEMIN5	-0.261	1.19	49.4	49.7	-0.155	-0.199
GFM1	-0.899	0.337	50.3	50.5	-0.108	0.0415
HACL1	-1.09	-0.922	56.6	56.1	-0.168	-0.0836
HEATR1	1.16	2.97	48.4	49.2	0.265	-1.01
HELZ	-0.338	-0.16	52.3	52.3	-0.131	0.00285
HERC1	-0.377	-0.404	51.7	51.3	-0.126	-0.169

Substance	thermal stability score (HeLa Kyoto [1]; [5])	thermal stability score (HeLa Kyoto [1]; cell cycle stage: mitosis)	melting temperature (HeLa Kyoto [2]; cell cycle stage: G1/S) [°C]	melting temperature (HeLa Kyoto [2]; cell cycle stage: mitosis) [°C]	solubility change mitosis (log2) (HeLa Kyoto [3])	solubility in G1/S (log2) (HeLa Kyoto [4])
HNRNPK	-0.521	2.21	49.7	49.9	0.0123	0.317
HSPA2	0.118	1.01	53.2	52.4	-0.0491	0.111
HSPA9	2.31	-0.387	53.1	52.8	-0.0046	0.447
HTT	-0.714	-1.14	50.6	50.7	-0.0881	-0.145
IDH3B	-1.39	-2	54.2	53.5	-0.00994	0.298
IMPDH1	5.12	3.19	51.1	51.6	-0.176	0.0289
ITCH	0.594	0.999	49.8	51.6	0.0566	-0.468
ITPR1	0.726	1.96	49.8	50.2	-0.0166	-0.349
ITPR2	-0.335	0.355	49.6	50.4	0.131	-0.52
ITSN2	0.178	0.129	51.9	49.1	-0.0144	-0.159
KIAA0930	0.34	0.505	52.6	52.3	-0.03	-0.0317
KIDINS220	-0.795	-1.61	52.9	52	0.00102	-0.21
LAMB1	3.04	4.45	53.6	54.2	-0.0866	0.0818
LDLR	-1.81	-1.47	56.6	56.6	-0.00467	-0.34
LMO7	3.45	3.47	51	51.1	0.694	-1.14
MAAAAAAAAAAGAAGGRGSGPGRRRHLVPGAGGEAGEGAPGGAGDYGNGLESEELEPEELLLEPEPEPEPEEEPPRPRAPPGAPGPGPGSGAPGSQEEEEEPGLVEGDPGDGAIEDPELEAIKARVREMEEEAEKLKELQNEVEKQMNMSPPPGNAGPVIMSIEEKMEADARSIYVGNVDYGATAEELEAHFHGCGSVNRVTILCDKFSGHPKGFAYIEFSDKESVRTSLALDESLFRGRQIKVIPKRTNRPGISTTDRGFPRARYRARTTNYNSSRSRFYSGFNSRPRGRVYRGRARATSWYSPY [PABPN1]	1.6	2.2	48.9	50.5	0.441	0.016
MAAAAAAGPSPGSGPGDSPEGPEGEAPERRRKAHGMLKLYYGLSEGEAAGRPAGPDPLDPTDLNGAHFDPEVYLDKLRRECPLAQLMDSETDMVRQIRALDSDMQTLVYENYNKFISATDTIRKMKNDFRKMEDEMDRLATNMAVITDFSARISATLQDRHERITKLAGVHALLRKLQFLFELPSRLTKCVELGAYGQAVRYQGRAQAVLQQYQHLPSFRAIQDDCQVITARLAQQLRQRFREGGSGAPEQAECVELLLALGEPAEELCEEFLAHARGRLEKELRNLEAELGPSPPAPDVLEFTDHGGSGFVGGLCQVAAAYQELFAAQGPAGAEKLAAFARQLGSRYFALVERRLAQEQGGGDNSLLVRALDRFHRRLRAPGALLAAAGLADAATEIVERVARERLGHHLQGLRAAFLGCLTDVRQALAAPRVAGKEGPGLAELLANVASSILSHIKASLAAVHLFTAKEVSFSNKPYFRGEFCSQGVREGLIVGFVHSMCQTAQSFCDSPGEKGGATPPALLLLLSRLCLDYETATISYILTLTDEQFLVQDQFPVTPVSTLCAEARETARRLLTHYVKVQGLVISQMLRKSVETRDWLSTLEPRNVRAVMKRVVEDTTAIDVQVGLLYEEGVRKAQSSDSSKRTFSVYSSSRQQGRYAPSYTPSAPMDTNLLSNIQKLFSERIDVFSPVEFNKVSVLTGIIKISLKTLLECVRLRTFGRFGLQQVQVDCHFLQLYLWRFVADEELVHLLLDEVVASAALRCPDPVPMEPSVVEVICERG [VPS51]	0.245	0.774	49.3	49.3	-0.137	0.0503
MWDQRLVRLALLQHLRAFYGIKVKGVRGQCDRRRHETAATEIGGKIFGVPFNALPHSAVPEYGHIPSFLVDACTSLEDHIHTEGLFRKSGSVIRLKALKNKVDHGEGCLSSAPPCDIAGLLKQFFRELPEPILPADLHEALLKAQQLGTEEKNKATLLLSCLLADHTVHVLRYFFNFLRNVSLRSSENKMDSSNLAVIFAPNLLQTSEGHEKMSSNTEKKLRLQAAVVQTLIDYASDIGRVPDFILEKIPAMLGIDGLCATPSLEGFEEGEYETPGEYKRKRRQSVGDFVSGALNKFKPNRTPSITPQEERIAQLSESPVILTPNAKRTLPVDSSHGFSSKKRKSIKHNFNFELLPSNLFNSSSTPVSVHIDTSSEGSSQSSLSPVLIGGNHLITAGVPRRSKRIAGKKVCRVESGKAGCFSPKISHKEKVRRSLRLKFNLGKNGREVNGCSGVNRYESVGWRLANQQSLKNRIESVKTGLLFSPDVDEKLPKKGSEKISKSEETLLTPERLVGTNYRMSWTGPNNSSFQEVDANEASSMVENLEVENSLEPDIMVEKSPATSCELTPSNLNNKHNSNITSSPLSGDENNMTKETLVKVQKAFSESGSNLHALMNQRQSSVTNVGKVKLTEPSYLEDSPEENLFETNDLTIVESKEKYEHHTGKGEKCFSERDFSPLQTQTFNRETTIKCYSTQMKMEHEKDIHSNMPKDYLSKQEFSSDEEIKKQQSPKDKLNNKLKENENMMEGNLPKCAAHSKDEARSSFSQQSTCVVTNLSKPRPMRIAKQQSLETCEKTVSESSQMTEHRKVSDHIQWFNKLSLNEPNRIKVKSPLKFQRTPVRQSVRRINSLLEYSRQPTGHKLASLGDTASPLVKSVSCDGALSSCIESASKDSSVSCIKSGPKEQKSMSCEESNIGAISKSSMELPSKSFLKMRKHPDSVNASLRSTTVYKQKILSDGQVKVPLDDLTNHDIVKPVVNNNMGISSGINNRVLRRPSERGRAWYKGSPKHPIGKTQLLPTSKPVDL [ARHGAP11A]	-0.137	-0.131	–	–	-0.288	-0.915
NHS	0.656	0.325	–	–	-0.00515	-0.153
NPTN	-1.2	-2.14	–	–	0.245	0.36
PTEN	-0.257	0.0266	–	–	0.174	-0.27
SACS	-0.0387	-0.338	–	–	-0.045	-0.294
TMEM131	-1.15	-1.6	–	–	-0.0264	-0.0423
UBR3	-0.103	-0.24	–	–	-0.171	-0.174
VKORC1	-0.761	-1.55	–	–	0.136	-0.134
